These results are taken from PMC8980812.

The target of assay [1] is PleC-CcaS chimeric histidine kinase (chimera AB-1) (Caulobacter crescentus | not stated).
The target in assay [2] is T1, PleC PAS AB-HK (Caulobacter crescentus).
T1 sequence (P37894 whole entry, looked up): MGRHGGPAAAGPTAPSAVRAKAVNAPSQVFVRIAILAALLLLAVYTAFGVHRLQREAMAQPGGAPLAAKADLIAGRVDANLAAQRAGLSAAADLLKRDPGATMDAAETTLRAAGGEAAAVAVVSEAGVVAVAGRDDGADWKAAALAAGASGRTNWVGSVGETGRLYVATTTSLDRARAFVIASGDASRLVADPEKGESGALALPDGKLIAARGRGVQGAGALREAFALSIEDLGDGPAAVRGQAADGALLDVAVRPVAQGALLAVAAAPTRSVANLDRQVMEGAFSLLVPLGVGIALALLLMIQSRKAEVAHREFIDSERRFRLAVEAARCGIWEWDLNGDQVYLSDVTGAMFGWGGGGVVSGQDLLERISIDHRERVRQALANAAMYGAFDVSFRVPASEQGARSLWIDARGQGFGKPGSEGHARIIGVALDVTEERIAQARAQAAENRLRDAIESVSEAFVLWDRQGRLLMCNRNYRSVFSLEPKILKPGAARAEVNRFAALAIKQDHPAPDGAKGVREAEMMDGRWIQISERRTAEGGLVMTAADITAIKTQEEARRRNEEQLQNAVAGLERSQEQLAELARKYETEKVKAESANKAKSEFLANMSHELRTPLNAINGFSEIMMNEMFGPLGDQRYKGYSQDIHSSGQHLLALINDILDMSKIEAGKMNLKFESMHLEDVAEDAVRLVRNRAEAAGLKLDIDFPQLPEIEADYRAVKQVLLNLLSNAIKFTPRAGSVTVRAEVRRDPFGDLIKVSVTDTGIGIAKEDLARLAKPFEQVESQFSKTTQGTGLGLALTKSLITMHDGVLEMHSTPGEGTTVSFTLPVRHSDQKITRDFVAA

For assay [3], the target named is PleC-CcaS chimeric histidine kinase (chimera AB-1) (Caulobacter crescentus | not stated). This is another data set of the same source.

B1: YFP-PodJ (full-length PodJL) (natural protein)
chain: MTAASPWSVKGIDPKAREVAKDLARRSGMTLGEWLNRMIIEGDGQTADPRLAGDDVPNRAYLEIVKDDAPPRIEIAEHPADEVGRVALALDRLTQRIEAAEGRNAAAITGIDHSVRDALTRLGASEREQIAVAARFEGAVDELKTEQARATERLRRIESEAAGPRSAEALRALEGALGKVAGHLYEGEARTREAIATLEAKLNQQSSGDPSALVEAVVARLGERLEAAETRTSDALRELGASFQALDQRLGAVETANPATGVQEGLDSLAATLTQKMEAARLEMAAKLRESADGRFDRMERKLGEMAAHVQAAEQRSAQAIERMGREIVGVADAFNRRVHAAESRNASAIEQVGGEVARIAASVEHKLNRADSVQAQALEKLGGEIARITEKLAERIGSAERRNALAIDDVGEQVARVTERLNQRHERSSQELVDRIRQSEERTLRMLEEAREKIDSRLSEAQRKLEAAPPSPPPAQAPAPVATAQRPVPPAASPFEDNYFSQAASFSTSEDEADAFDAPPAPARSFEVAEFPAAEPEEPAFAHDDYAIADGFEPESPRYEVEPEVSDFAPAEPSRPMSTRDIIEQARAAARAAAASEGKGGKAKSAKKEKASKASGSLFSGFGGFSTKKSKARLGATVTTALVVFAAAGALGAGVGGLLLLNTDDGNNSPSRVAQAIAGRKADVEVNGPEADTTPGAPRAAVALTTGKVVPAEVEAPAAPPTNEAKALFEDAVRKIESGDRSGVELLKRAANGGYPAAQFYLSKMYEGGKNGVKVDMAEARRWSERAANGGDPRAMHNLALYYFKGEGGPRNSTTAASWFRKAADMGLVDSQFNLAQLYESGLGVSQNPAEAYKWYVIAGRAGDSTARGRATALRSQLTAEAQQTADRSALAFRPQTQVQTASLSSAAPAAANANLGVAQRVLSQLGYYQGPRDGVSSPALRMAIAAYQRDQGLPPTGSVDAETLNRLSVYAR
In the case of B1, the mCherry expression from the cpcG2 promoter through PleC-CcaS and CcaR in E. coli, relative to the empty vector control in assay [1] was 10 fold.

B2: PodJ(250–635) (domain or fragment)
chain: LGAVETANPATGVQEGLDSLAATLTQKMEAARLEMAAKLRESADGRFDRMERKLGEMAAHVQAAEQRSAQAIERMGREIVGVADAFNRRVHAAESRNASAIEQVGGEVARIAASVEHKLNRADSVQAQALEKLGGEIARITEKLAERIGSAERRNALAIDDVGEQVARVTERLNQRHERSSQELVDRIRQSEERTLRMLEEAREKIDSRLSEAQRKLEAAPPSPPPAQAPAPVATAQRPVPPAASPFEDNYFSQAASFSTSEDEADAFDAPPAPARSFEVAEFPAAEPEEPAFAHDDYAIADGFEPESPRYEVEPEVSDFAPAEPSRPMSTRDIIEQARAAARAAAASEGKGGKAKSAKKEKASKASGSLFSGFGGFSTKKSKARL
On to B2, for which the ADP production IC50 (coupled enzyme assay of PleC PAS AB-HK) relative to that of PodJ(1–635) in assay [2] amounted to 2 fold.

B3: PodJ(250–635) expressed in E. coli (domain or fragment)
chain: B2 chain
B3 gave a mCherry expression from the cpcG2 promoter through PleC-CcaS and CcaR in E. coli in assay [3] of 3 fold.
